Results reported in publication PMC5876331, “RING tetramerization is required for nuclear body biogenesis and PML sumoylation” (Nature Communications, 2018).
Several values for one entry are separate records, joined by “and”; a condition that tells them apart may be missing. Equal values may be shown once.

B1: PML RING49-104 domain (amino acids 49-104), wild type (domain or fragment, UniProt P29590 49-104, looked up)
chain: EEEFQFLRCQQCQAEAKCPKLLPCLHTLCSGCLEASGMQCPICQAPWPLGADTPAL
notes: PML (promyelocytic leukemia protein), RING domain, amino acids 49-104; residues 51-97 visible in the electron density map; Two Zn ions per subunit; not shown: His6, N-terminal, cleaved
B2: PML RING1-119 (amino acids 1-119), wild type (domain or fragment, UniProt P29590 1-119, looked up)
chain: MEPAPARSPRPQQDPARPQEPTMPPPETPSEGRQPSPSPSPTERAPASEEEFQFLRCQQCQAEAKCPKLLPCLHTLCSGCLEASGMQCPICQAPWPLGADTPALDNVFFESLQRRLSVY
notes: PML, amino acids 1-119 (extended RING); theoretical molecular weight 13.1 kDa; also called extended RING; long version of PML RING; not shown: His6, N-terminal, cleaved

What was measured:
[1] = molecular target: the molecule itself; assay: AUC; sedimentation velocity, 200,000g, 25 °C, 20 mM Tris, 100 mM NaCl, pH 8.0, with/without 1 mM DTT; 1 mg ml^-1 (wild type also 5 mg ml^-1); SEDFIT c(s)
[2] = molecular target: the molecule itself; assay: crystal structure; PML RING49-104 crystallised at 26 mg ml^-1, 500 mM ammonium sulfate, 1 M lithium sulfate, 100 mM sodium citrate, 4 °C; 1.6 Å, Zn SAD; 4 molecules per ASU
[3] = molecular target: the molecule itself; assay: SEC-MALS; pooled gel filtration peaks of PML RING1-119 re-analysed on WTC-015S5 column, 40 μl injection, 0.5 ml min^-1, DAWN HELEOS-II MALS

Protein	stoichiometry N [1]	stoichiometry N [2]	stoichiometry N [3]
B1	2	4	
B2			4 and 2
